± gives the standard error. For some assays here: This sample holds only a part of the variants without activity.
B1: glmS ribozyme (parent)
chain: AUAAAAGCGCCAGAACUACAGAAAUGUAGUUGACGAGGAGGAGGUUUAUCGAAUUUUCGGCGGAUGCCUCCAAA

Experiments:
Details in all cases: with glucosamine-6-phosphate
glucosamine-6-phosphate [1] = variants of: B1; test: kcat; higher = faster cleavage; RNA array
Method in brief: (§1)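 Ribozyme variants carrying barcodes were transcribed in situ on sequenced MiSeq chips by E. coli RNA polymerase and tracked at 37 °C with a hybridised Cy3 probe. They were exposed to 40 μM to 10 mM glucosamine-6-phosphate in HEPES/KCl/Mg(OAc)2 buffer. kobs came from exponential decay fits of normalised per-tile medians, and kcat and KM from weighted Michaelis–Menten fits.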

glucosamine-6-phosphate [2] = variants of: B1; test: KM; higher = weaker cofactor use; RNA array
Method in brief: as §1

glucosamine-6-phosphate [3] = variants of: B1; test: self-cleavage kobs at 40 uM GlcN6P; higher = faster cleavage; RNA array
Method in brief: as §1

glucosamine-6-phosphate [4] = variants of: B1; test: self-cleavage kobs at 160 uM GlcN6P; higher = faster cleavage; RNA array
Method in brief: as §1

glucosamine-6-phosphate [5] = variants of: B1; test: self-cleavage kobs at 640 uM GlcN6P; higher = faster cleavage; RNA array
Method in brief: as §1

glucosamine-6-phosphate [6] = variants of: B1; test: self-cleavage kobs at 2500 uM GlcN6P; higher = faster cleavage; RNA array
Method in brief: as §1

glucosamine-6-phosphate [7] = variants of: B1; test: self-cleavage kobs at 10000 uM GlcN6P; higher = faster cleavage; RNA array
Method in brief: as §1

Row | Variant | kcat (glucosamine-6-phosphate [1]) [s⁻¹] | KM (glucosamine-6-phosphate [2]) [µM] | self-cleavage kobs at 40 uM GlcN6P (glucosamine-6-phosphate [3]) [s⁻¹] | self-cleavage kobs at 160 uM GlcN6P (glucosamine-6-phosphate [4]) [s⁻¹] | self-cleavage kobs at 640 uM GlcN6P (glucosamine-6-phosphate [5]) [s⁻¹] | self-cleavage kobs at 2500 uM GlcN6P (glucosamine-6-phosphate [6]) [s⁻¹] | self-cleavage kobs at 10000 uM GlcN6P (glucosamine-6-phosphate [7]) [s⁻¹]
1 | U47A U54A | 0.0235 ± 0.0067 | 1820 ± 700 | 0.000584 ± 0.00012 | 0.00186 ± 0.00037 | 0.00587 ± 0.001 | 0.0118 ± 0.0025 | 0.0314 ± 0.0084
2 | G41U U56C | 3.03e-05 ± 3.2e-06 | 1560 ± 400 |  | < 1e-05 |  |  | 
3 | C16U C61G | < 1e-05 |  |  |  |  |  | 
4 | A6C U54A | 0.000158 ± 2.8e-05 | 6600 ± 2300 |  |  |  | 4.87e-05 ± 1.5e-05 | 9.38e-05 ± 1.7e-05
5 | A14C C70G | 0.00014 ± 1.4e-05 | 866 ± 250 |  | 3.24e-05 ± 1.3e-05 | 5.83e-05 ± 7.3e-06 | 9.83e-05 ± 1.1e-05 | 0.000134 ± 1.3e-05
6 | G66A C68A | 0.000285 ± 7.9e-05 |  |  |  | 0.000138 ± 2.7e-05 | 0.000313 ± 5.4e-05 | 0.000216 ± 4.2e-05
7 | A15C U47C C71U | 0.000301 ± 5.9e-06 | 867 ± 47 |  |  | 0.000129 ± 2.7e-05 | 0.000228 ± 4.9e-05 | 0.000275 ± 4.5e-05
8 | C67A C68G | 4.23e-05 ± 1e-05 |  |  | 4.13e-05 ± 1.5e-05 | 5.98e-05 ± 1.7e-05 | 5.59e-05 ± 1.3e-05 | 2.51e-05 ± 1.1e-05
9 | A14C A39G | 0.0127 ± 0.0026 | 3770 ± 970 | 0.000147 ± 1.6e-05 | 0.000352 ± 0.00017 | 0.00155 ± 0.0003 | 0.0051 ± 0.00078 | 0.0095 ± 0.0016
10 | C16G U56G | 0.00338 ± 0.00054 | 1220 ± 320 | 0.000129 ± 2.5e-05 | 0.000387 ± 9.6e-05 | 0.000953 ± 0.00023 | 0.00213 ± 0.00038 | 0.00348 ± 0.00064
11 | C11A G59A | 0.000719 ± 4.8e-05 | 4140 ± 480 |  |  | 9.86e-05 ± 1.6e-05 | 0.000248 ± 5e-05 | 0.000516 ± 5.9e-05
12 | G29A A64C | < 1e-05 |  | < 1e-05 | < 1e-05 |  |  | 
13 | C11U G59A | 0.0105 ± 0.0043 |  | 0.000335 ± 3.7e-05 | 0.0014 ± 0.00027 | 0.00203 ± 0.0004 | 0.00582 ± 0.0018 | 0.0116 ± 0.0016
14 | A15U C58A | 0.000154 ± 5.6e-06 | 3640 ± 360 |  |  |  | 6.38e-05 ± 1.2e-05 | 0.000113 ± 1e-05
15 | A15U C58U | 8.55e-05 ± 9.3e-06 | 3320 ± 980 |  |  |  | 3.46e-05 ± 8.3e-06 | 6.48e-05 ± 8.4e-06

— the supplement of paper PMC7125110
